Columns and labels:
Assay in all cases: holdup assay
Design in all cases: key: below the threshold = too weak to quantify, mostly under pKd 3.1 to 4
[1] = target: T1, FRMPD1, Q5SYB0
T1 sequence (Q5SYB0 52-145, limits assumed, looked up): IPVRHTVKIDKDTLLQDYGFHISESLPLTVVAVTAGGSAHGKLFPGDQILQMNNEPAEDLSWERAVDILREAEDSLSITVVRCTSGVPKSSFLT

[2] = target: T2, MPP7, Q5T2T1
T2 sequence (Q5T2T1 134-230, limits assumed, looked up): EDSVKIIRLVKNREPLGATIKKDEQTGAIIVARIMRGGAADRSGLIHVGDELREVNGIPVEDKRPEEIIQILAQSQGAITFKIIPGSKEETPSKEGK

[3] = target: T3, MPP6, Q9NZW5
T3 sequence (Q9NZW5 125-219, limits assumed, looked up): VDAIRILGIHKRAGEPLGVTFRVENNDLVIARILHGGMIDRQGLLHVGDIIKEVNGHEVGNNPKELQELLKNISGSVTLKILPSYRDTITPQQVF

[4] = target: LNX1_1, Q8TBB1
[5] = target: HTRA2, O43464
[6] = target: MAST1, Q9Y2H9
[7] = target: FRMPD2_3, Q68DX3
[8] = target: DLG1_2, Q12959
[9] = target: GRIP2_6, Q9C0E4
[10] = target: IL16_3, Q14005
[11] = target: HTRA1, Q92743
[12] = target: T4, RAPGEF6, Q8TEU7
T4 sequence (Q8TEU7 525-625, limits assumed, looked up): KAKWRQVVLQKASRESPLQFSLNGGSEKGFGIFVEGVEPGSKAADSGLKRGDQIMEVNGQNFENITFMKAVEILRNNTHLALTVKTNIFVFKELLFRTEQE

[13] = target: LNX1_3, Q8TBB1
[14] = target: LIMK2, P53671
[15] = target: MAGI1_2, Q96QZ7
[16] = target: T5, LIN7A, O14910
T5 sequence (O14910 103-200, limits assumed, looked up): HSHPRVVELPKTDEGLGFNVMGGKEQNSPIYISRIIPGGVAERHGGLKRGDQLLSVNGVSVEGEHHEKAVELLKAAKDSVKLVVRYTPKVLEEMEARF

[17] = target: GRIP2_4, Q9C0E4
[18] = target: T6, CARD11, Q9BXL7
T6 sequence (Q9BXL7 662-765, limits assumed, looked up): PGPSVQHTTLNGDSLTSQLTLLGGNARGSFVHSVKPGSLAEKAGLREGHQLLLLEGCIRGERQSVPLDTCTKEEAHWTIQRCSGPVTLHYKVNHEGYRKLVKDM

[19] = target: PDZRN4_1, Q6ZMN7
[20] = target: Inadl_9, Q8NI35
[21] = target: IL16_4, Q14005
[22] = target: GRIP2_5, Q9C0E4
[23] = target: NHERF4_4, Q86UT5
[24] = target: AHNAK1, Q09666
[25] = target: LDB3, O75112
[26] = target: MAGI1_1, Q96QZ7
[27] = target: T7, DLG3_2, Q92796
T7 sequence (Q92796 221-321, limits assumed, looked up): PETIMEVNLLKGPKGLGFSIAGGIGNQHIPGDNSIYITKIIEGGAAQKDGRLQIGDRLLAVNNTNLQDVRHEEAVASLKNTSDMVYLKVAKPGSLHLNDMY

[28] = target: T8, SNTG1, Q9NSN8
T8 sequence (Q9NSN8 52-150, limits assumed, looked up): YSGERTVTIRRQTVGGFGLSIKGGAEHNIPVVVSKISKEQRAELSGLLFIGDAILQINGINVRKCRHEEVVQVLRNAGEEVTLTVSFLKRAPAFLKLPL

[29] = target: T9, GRIP1_4, Q9Y3R0
T9 sequence (Q9Y3R0 467-571, limits assumed, looked up): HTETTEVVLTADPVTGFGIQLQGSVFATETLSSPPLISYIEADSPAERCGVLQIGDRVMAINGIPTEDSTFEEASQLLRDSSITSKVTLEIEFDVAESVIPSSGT

[30] = modified: phospho on T at position -2 from the C-terminal residue
[31] = plain residues with an end cap or a label only (N-terminal biotin on a linker: ado-ado)

Measured: pKd

Chain of IL16_4, Q14005 (Q14005 1229-1329): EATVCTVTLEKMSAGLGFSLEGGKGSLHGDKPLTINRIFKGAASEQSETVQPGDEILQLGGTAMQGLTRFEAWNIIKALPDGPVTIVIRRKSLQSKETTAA
Chain of PDZRN4_1, Q6ZMN7 (Q6ZMN7 213-318): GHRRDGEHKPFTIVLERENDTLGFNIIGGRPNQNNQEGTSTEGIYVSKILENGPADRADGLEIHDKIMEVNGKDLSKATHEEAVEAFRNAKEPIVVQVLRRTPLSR
Chain of FRMPD2_3, Q68DX3 (Q68DX3 1073-1166): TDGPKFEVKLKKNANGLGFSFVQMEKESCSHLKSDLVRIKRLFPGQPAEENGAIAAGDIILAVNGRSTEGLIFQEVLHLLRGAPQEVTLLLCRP
Chain of LDB3, O75112 (O75112 1-94): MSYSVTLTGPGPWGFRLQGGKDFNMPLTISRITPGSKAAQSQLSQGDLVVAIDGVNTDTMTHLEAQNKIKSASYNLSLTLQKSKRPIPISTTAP
Chain of LNX1_1, Q8TBB1 (Q8TBB1 261-371): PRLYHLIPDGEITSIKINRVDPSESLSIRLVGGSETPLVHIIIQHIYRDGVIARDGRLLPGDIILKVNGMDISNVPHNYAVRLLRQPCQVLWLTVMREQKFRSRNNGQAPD
Chain of GRIP2_4, Q9C0E4 (Q9C0E4 446-548): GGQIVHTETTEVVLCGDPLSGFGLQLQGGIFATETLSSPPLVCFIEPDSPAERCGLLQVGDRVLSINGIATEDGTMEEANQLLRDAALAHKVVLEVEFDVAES
Chain of MAGI1_1, Q96QZ7 (Q96QZ7 1-106): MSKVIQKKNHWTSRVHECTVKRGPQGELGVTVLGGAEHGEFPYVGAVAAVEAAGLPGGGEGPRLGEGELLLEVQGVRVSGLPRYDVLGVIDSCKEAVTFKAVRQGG
Chain of MAGI1_2, Q96QZ7 (Q96QZ7 456-580): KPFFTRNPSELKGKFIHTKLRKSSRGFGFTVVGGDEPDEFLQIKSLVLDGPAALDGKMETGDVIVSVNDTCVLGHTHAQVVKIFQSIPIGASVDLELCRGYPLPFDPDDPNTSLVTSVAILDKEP
Chain of GRIP2_6, Q9C0E4 (Q9C0E4 648-740): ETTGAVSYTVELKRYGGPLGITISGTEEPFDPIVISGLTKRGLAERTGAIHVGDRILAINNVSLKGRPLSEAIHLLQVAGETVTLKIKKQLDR
Chain of HTRA2, O43464 (O43464 355-458): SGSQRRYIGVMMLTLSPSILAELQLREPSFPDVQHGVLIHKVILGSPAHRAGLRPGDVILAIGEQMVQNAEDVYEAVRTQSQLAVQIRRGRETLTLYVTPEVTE
Chain of DLG1_2, Q12959 (Q12959 314-412): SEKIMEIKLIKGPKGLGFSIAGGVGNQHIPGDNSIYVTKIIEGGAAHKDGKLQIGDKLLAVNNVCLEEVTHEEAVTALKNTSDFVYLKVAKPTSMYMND
Chain of MAST1, Q9Y2H9 (Q9Y2H9 962-1065): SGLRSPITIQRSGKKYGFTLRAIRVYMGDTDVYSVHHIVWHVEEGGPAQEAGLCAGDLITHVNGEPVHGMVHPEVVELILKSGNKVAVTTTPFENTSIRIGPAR
Chain of Inadl_9, Q8NI35 (Q8NI35 1530-1615): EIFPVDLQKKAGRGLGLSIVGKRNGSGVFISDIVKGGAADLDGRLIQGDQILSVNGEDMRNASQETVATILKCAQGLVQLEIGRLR
Chain of LNX1_3, Q8TBB1 (Q8TBB1 500-596): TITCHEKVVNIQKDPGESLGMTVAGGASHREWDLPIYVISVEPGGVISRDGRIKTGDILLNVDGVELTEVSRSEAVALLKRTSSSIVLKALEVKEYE
Chain of AHNAK1, Q09666 (Q09666 4-100): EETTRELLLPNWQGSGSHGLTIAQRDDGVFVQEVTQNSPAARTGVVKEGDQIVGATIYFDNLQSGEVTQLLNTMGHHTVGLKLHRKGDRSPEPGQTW
Chain of HTRA1, Q92743 (Q92743 360-477): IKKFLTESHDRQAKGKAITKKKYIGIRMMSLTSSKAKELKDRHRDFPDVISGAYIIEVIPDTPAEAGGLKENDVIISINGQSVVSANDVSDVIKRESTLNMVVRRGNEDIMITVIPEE
Chain of LIMK2, P53671 (P53671 143-248): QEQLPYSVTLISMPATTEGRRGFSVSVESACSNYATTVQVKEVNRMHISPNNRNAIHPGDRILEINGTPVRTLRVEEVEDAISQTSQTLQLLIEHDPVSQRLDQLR
Chain of IL16_3, Q14005 (Q14005 1107-1207): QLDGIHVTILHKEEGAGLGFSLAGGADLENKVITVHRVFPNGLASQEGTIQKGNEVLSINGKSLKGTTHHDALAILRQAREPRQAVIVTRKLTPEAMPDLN
Chain of GRIP2_5, Q9C0E4 (Q9C0E4 544-642): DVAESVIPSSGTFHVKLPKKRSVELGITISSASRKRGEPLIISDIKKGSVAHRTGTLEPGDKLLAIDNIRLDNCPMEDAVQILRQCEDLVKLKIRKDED
Chain of NHERF4_4, Q86UT5 (Q86UT5 464-550): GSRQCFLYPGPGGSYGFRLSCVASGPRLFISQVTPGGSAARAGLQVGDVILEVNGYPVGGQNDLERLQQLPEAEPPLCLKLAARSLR

SKPTRRETEV [HPV35-E6_-2P, P27228]
3.78: [3]; [30]
3.86: [23]; [30]
below the threshold: [1]; [30] | [2]; [30] | [4]; [30] | [5]; [30] | [6]; [30] | [7]; [30] | [8]; [30] | [9]; [30] | [10]; [30] | [11]; [30] | [12]; [30] | [13]; [30] | [14]; [30] | [15]; [30] | [16]; [30] | [17]; [30] | [18]; [30] | [19]; [30] | [20]; [30] | [21]; [30] | [22]; [30] | [24]; [30] | [25]; [30] | [26]; [30] | [27]; [30] | [28]; [30] | [29]; [30]

LRSPRTPSEV [OR10G3, Q8NGC4]
3.58: [11]; [31]
4.01: [20]; [31]
below the threshold: [1]; [31] | [2]; [31] | [3]; [31] | [4]; [31] | [5]; [31] | [6]; [31] | [7]; [31] | [9]; [31] | [10]; [31] | [12]; [31] | [13]; [31] | [14]; [31] | [16]; [31] | [17]; [31] | [18]; [31] | [19]; [31] | [22]; [31] | [23]; [31] | [24]; [31] | [25]; [31] | [26]; [31] | [28]; [31] | [29]; [31]
3.92: [15]; [31]
3.53: [21]; [31]
3.65: [27]; [31]
4.1: [8]; [31]

RRRESYSTTV [EVI5, O60447]
4.47: [4]; [31]
below the threshold: [1]; [31] | [2]; [31] | [3]; [31] | [5]; [31] | [7]; [31] | [10]; [31] | [12]; [31] | [13]; [31] | [14]; [31] | [16]; [31] | [17]; [31] | [18]; [31] | [21]; [31] | [22]; [31] | [23]; [31] | [24]; [31] | [25]; [31] | [26]; [31] | [29]; [31]
5.44: [27]; [31]
3.63: [28]; [31]
4.82: [6]; [31]
4.23: [19]; [31]
3.88: [20]; [31]
4.45: [11]; [31]
4.61: [9]; [31]
5.57: [8]; [31]
4.78: [15]; [31]

RRLPGKETMA [GRIK2, Q13002]
3.66: [8]; [31]
below the threshold: [1]; [31] | [2]; [31] | [3]; [31] | [4]; [31] | [5]; [31] | [6]; [31] | [7]; [31] | [9]; [31] | [10]; [31] | [11]; [31] | [13]; [31] | [14]; [31] | [15]; [31] | [16]; [31] | [17]; [31] | [18]; [31] | [19]; [31] | [20]; [31] | [21]; [31] | [22]; [31] | [23]; [31] | [24]; [31] | [25]; [31] | [26]; [31] | [28]; [31] | [29]; [31]
4.18: [27]; [31]
3.53: [12]; [31]

Source: article PMC9482650, “Quantitative fragmentomics allow affinity mapping of interactomes” (Nature Communications, 2022)
